The target of series [1] is Ac-K206 MITF DBD (Homo sapiens) (UniProt O75030). In words: fluorescence anisotropy. The note with it: 10 mM Tris/HCl pH 7.5, 300 mM NaCl, 0.01% Triton X-100, 0.1 mg/mL BSA, 25 C, 5 min, 1.33 nM dsDNA, quadratic fit, n=3.
The target in series [2] is T1, MITF DBD WT (UniProt Q08874 287-403). In words: fluorescence anisotropy; moderately reduced vs CLEAR-box; 10 mM Tris/HCl pH 7.5, 300 mM NaCl, 0.01% Triton X-100, 0.1 mg/mL BSA, 25 C, 5 min, 1.33 nM dsDNA; quadratic fit, n=3. To be noted: protein: recombinant; tags: His (Ni-NTA purified; pETM-11); chain copies: 2; label: 3' fluorescein on strand 1; blunt (annealed with complementary oligonucleotide). On the technique in general: Fluorescence polarisation rises when a labelled molecule tumbles more slowly, as on binding a larger partner.

Series [3] concerns the target T1, MITF DBD WT. In words: fluorescence anisotropy; 10 mM Tris/HCl pH 7.5, 300 mM NaCl, 0.01% Triton X-100, 0.1 mg/mL BSA, 25 C, 5 min, 1.33 nM dsDNA; quadratic fit, n=3. The note with it: protein: recombinant; tags: His (Ni-NTA purified; pETM-11); chain copies: 2; label: 3' fluorescein on strand 1; blunt (annealed with complementary oligonucleotide).

Chain of Ac-K206 MITF DBD (Homo sapiens) (O75030 whole entry): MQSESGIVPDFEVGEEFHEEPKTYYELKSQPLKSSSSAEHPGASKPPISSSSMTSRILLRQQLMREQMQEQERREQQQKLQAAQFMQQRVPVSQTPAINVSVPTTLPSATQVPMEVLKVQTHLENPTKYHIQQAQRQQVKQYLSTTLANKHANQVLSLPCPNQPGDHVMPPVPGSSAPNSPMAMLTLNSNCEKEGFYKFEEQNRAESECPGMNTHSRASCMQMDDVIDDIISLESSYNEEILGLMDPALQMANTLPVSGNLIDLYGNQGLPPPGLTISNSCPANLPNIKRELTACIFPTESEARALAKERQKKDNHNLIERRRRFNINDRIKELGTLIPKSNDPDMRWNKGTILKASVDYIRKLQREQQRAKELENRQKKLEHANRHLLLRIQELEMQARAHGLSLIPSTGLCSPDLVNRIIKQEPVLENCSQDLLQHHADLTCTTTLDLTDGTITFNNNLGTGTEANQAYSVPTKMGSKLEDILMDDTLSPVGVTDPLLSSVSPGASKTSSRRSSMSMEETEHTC
T1 sequence (Q08874 287-403): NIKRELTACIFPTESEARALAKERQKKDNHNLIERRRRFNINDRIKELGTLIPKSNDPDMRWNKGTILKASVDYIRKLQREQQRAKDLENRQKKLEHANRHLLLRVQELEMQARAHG

“GAGATCATGTGTTGAC (double strand) [M-box]” returned a binding signal (fold reduced vs Ac-K206 on CLEAR-box) in series [1] of 20.

Molecule “GAGATCATGTGATGAC (double strand) [TYR enhancer]” registered a binding signal in series [1] (scale: fold further reduced vs Ac-K206 on CLEAR-box) of 5.

Turning to “GAGATCACGTGATGAC (double strand) [CLEAR-box]”, in series [1], the binding signal (fold reduced vs WT on CLEAR-box) came to 3.

B1: TYR enhancer (dsDNA)
DNA 1: GAGATCATGTGATGAC
DNA 2: GTCATCACATGATCTC
For B1, the binding result in series [2] is reported as “binds”.

B2: CLEAR-box (dsDNA)
DNA 1: GAGATCACGTGATGAC
DNA 2: GTCATCACGTGATCTC
For the molecule B2, in series [3], the binding result is given as “binds”.

For the origin of these results see paper PMC10539308, “Acetylation reprograms MITF target selectivity and residence time”.
